According to patent US20240043521A1 (ARXX THERAPEUTICS, published 2024):

What was measured:
[1] = target: T1, human S100A4 protein (human, UniProt P26447 1-101); experiment: Western blot
T1 construct: also called S100A4 (human)

[2] = target: A6 (lane under "Human S100 Proteins") (Homo sapiens, UniProt P06703); experiment: Western blot on human S100 proteins
[3] = target: T2, A8 (lane under "Human S100 Proteins"); experiment: Western blot on human S100 proteins
T2 construct: also called human S100A8
T2 chain: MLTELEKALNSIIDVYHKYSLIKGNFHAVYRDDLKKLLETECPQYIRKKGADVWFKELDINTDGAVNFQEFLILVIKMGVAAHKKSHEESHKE

T1 sequence (P26447 whole entry, one chain of several): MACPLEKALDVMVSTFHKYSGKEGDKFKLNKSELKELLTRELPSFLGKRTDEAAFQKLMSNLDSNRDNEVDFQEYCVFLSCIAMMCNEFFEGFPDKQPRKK

B1: VH1_40Phe:VL3_Leu44 (antibody, V domains shown)
VH: QVQLQESGPGLVKPSQTLSLTCTVSGDSFTNDYYWNWIRQFPGKGLEWIGHIGYGGNINYNPSLKNRLSMSRDTSKNQFSLKLSSVTAADTAVYYCTRESFYDGYPFDYWGQGTLVTVSS
VL: DIQMTQSPSSLSASVGDRVTITCRASQDIRNYLNWYQQKPGKALKLLLYYTSRLHSGVPSRFSGSGSGTDYTLTISSLQPEDFATYYCQQGNSLPRTFGGGTKVEIK
notes: also called Phe40/Leu44; VH1_H40Phe VL3_L44Leu
- binding result [1]: binds
- binding result [2]: no binding
- binding result [3]: no binding
